B1: FOXJ1 (parent)
chain: SAIYKWITDNFCYFRHADPTWQNS
B2: ADD1 (parent)
chain: FASDGDSGTCSPLRHSFQKQQREK

Variants of: B1
Assay: protein stability index of a GFP-peptide fusion (GPS, HEK-293T) (PSI 1-6); higher = more stable
Details: c terminus: a fixed tail appended
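Further: lentivirally expressed fusions sorted by FACS into six bins by GFP to DsRed ratio, PSI derived from sequencing read proportions per bin multiplied by bin number.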

Row | Variant | protein stability index
1 | SAIYKWATDNFCYFRHADPTWQNS [I7A] | 2.02
2 | SAIYKWVTDNFCYFRHADPTWQNS [I7V] | 2.81
3 | SAIYKWQTDNFCYFRHADPTWQNS [I7Q] | 1.36
4 | SAIYKWLTDNFCYFRHADPTWQNS [I7L] | 2.9
5 | SAIYKWETDNFCYFRHADPTWQNS [I7E] | 2.3
6 | SAIYKWMTDNFCYFRHADPTWQNS [I7M] | 3.88
7 | SAIYKWHTDNFCYFRHADPTWQNS [I7H] | 1.6
8 | SAIYKWSTDNFCYFRHADPTWQNS [I7S] | 2.81
9 | SAIYKWPTDNFCYFRHADPTWQNS [I7P] | 2.1
10 | SAIYKWTTDNFCYFRHADPTWQNS [I7T] | 1.66
11 | SAIYKWITDNFCYFRHADPIWQNS [T20I] | 2.42
12 | SAIYKWITDNFCYFRHADPRWQNS [T20R] | 3.92
13 | SAIYKWITDNFCYFRHADPLWQNS [T20L] | 2.08
14 | SAIYKWITDNFCYFRHADPFWQNS [T20F] | 1.78
15 | SAIYKWITDNFCYFRHADPYWQNS [T20Y] | 2.55
16 | SAIYKWITDNFCYFRHADPKWQNS [T20K] | 2.23
17 | SAIYKWITDNFCYFRHADPPWQNS [T20P] | 3.38
18 | SAIYKWITDNFCFFRHADPTWQNS [Y13F] | 2.47
19 | SAIYKWITDNFCSFRHADPTWQNS [Y13S] | 2.2
20 | SAIYKWITDNFCAFRHADPTWQNS [Y13A] | 3.53
21 | SAIYKWITDNFCEFRHADPTWQNS [Y13E] | 1.03
22 | SAIYKWITDNFCTFRHADPTWQNS [Y13T] | 2.96

Row | Variant | protein stability index
23 | SAIYKWITDNFCLFRHADPTWQNS [Y13L] | 1.87
24 | SAIYKWITDNFCCFRHADPTWQNS [Y13C] | 2.83
25 | SAIYKWITENFCYFRHADPTWQNS [D9E] | 3.89
26 | SAIYKWITFNFCYFRHADPTWQNS [D9F] | 3.55
27 | SAIYKWITRNFCYFRHADPTWQNS [D9R] | 3.41
28 | SAIYKWITCNFCYFRHADPTWQNS [D9C] | 4.21
29 | SAIYKWITPNFCYFRHADPTWQNS [D9P] | 2.83
30 | SAIYKWITGNFCYFRHADPTWQNS [D9G] | 3.51
31 | SAIYKWITYNFCYFRHADPTWQNS [D9Y] | 2.56
32 | SAIYKWITMNFCYFRHADPTWQNS [D9M] | 3.64
33 | SAIYKWITDNFCYFRHADPTTQNS [W21T] | 4.47
34 | SAIYKWITDNFCYFRHADPTGQNS [W21G] | 2.24
35 | SAIYKWITDNFCYFRHADPTQQNS [W21Q] | 2.9
36 | SAIYKWITDNFCYFRHADPTSQNS [W21S] | 1.61
37 | SAIYKWITDNFCYFRHADPTRQNS [W21R] | 2.27
38 | SAIYKWIPDNFCYFRHADPTWQNS [T8P] | 1.86
39 | SAIYKWIIDNFCYFRHADPTWQNS [T8I] | 1.8
40 | SAIYKWIGDNFCYFRHADPTWQNS [T8G] | 2.05
41 | SAIYKWITDNFTYFRHADPTWQNS [C12T] | 3.14
42 | SAIYKWITDNFKYFRHADPTWQNS [C12K] | 2.81
43 | SAIYKWITDNFDYFRHADPTWQNS [C12D] | 1.59
44 | SAIYKWITDNFGYFRHADPTWQNS [C12G] | 2.61

Row | Variant | protein stability index
45 | SAIYKWITDNFQYFRHADPTWQNS [C12Q] | 1.81
46 | SAIYKWITDNFCYFRHASPTWQNS [D18S] | 3.4
47 | SAIYKWITDNFCYFRHACPTWQNS [D18C] | 2.02
48 | SAIYKWITDNFCYFRHALPTWQNS [D18L] | 2.74
49 | SAIYKWITDNFCYFRHAVPTWQNS [D18V] | 2.75
50 | SAIYKWITDNFCYFRHAHPTWQNS [D18H] | 4.66
51 | SAIYKWITDNFCYFRHANPTWQNS [D18N] | 3.12
52 | SAIYKWITDNFCYFRHAEPTWQNS [D18E] | 3.65
53 | SAIYKWITDNFCYFRHATPTWQNS [D18T] | 2.81
54 | SAIYKWITDNFCYFRHAGPTWQNS [D18G] | 2.24
55 | SAIYKWITDNFCYFRHADPTWQNM [S24M] | 2.55
56 | SAIYKWITDNFCYFRHADPTWQNW [S24W] | 2.37
57 | PAIYKWITDNFCYFRHADPTWQNS [S1P] | 2.9
58 | WAIYKWITDNFCYFRHADPTWQNS [S1W] | 3.8
59 | NAIYKWITDNFCYFRHADPTWQNS [S1N] | 2.5
60 | YAIYKWITDNFCYFRHADPTWQNS [S1Y] | 2.05
61 | TAIYKWITDNFCYFRHADPTWQNS [S1T] | 3.01
62 | LAIYKWITDNFCYFRHADPTWQNS [S1L] | 2.55
63 | AAIYKWITDNFCYFRHADPTWQNS [S1A] | 3.31
64 | QAIYKWITDNFCYFRHADPTWQNS [S1Q] | 2.31

Variants of: B2
Assay: as above
Details: c terminus: a fixed tail appended

Row | Variant | protein stability index
65 | FMSDGDSGTCSPLRHSFQKQQREK [A2M] | 3.86
66 | FLSDGDSGTCSPLRHSFQKQQREK [A2L] | 3.7
67 | FESDGDSGTCSPLRHSFQKQQREK [A2E] | 5.18
68 | FNSDGDSGTCSPLRHSFQKQQREK [A2N] | 4.79
69 | FFSDGDSGTCSPLRHSFQKQQREK [A2F] | 4.6
70 | FCSDGDSGTCSPLRHSFQKQQREK [A2C] | 3.54
71 | FGSDGDSGTCSPLRHSFQKQQREK [A2G] | 4.11
72 | FHSDGDSGTCSPLRHSFQKQQREK [A2H] | 2.76
73 | FISDGDSGTCSPLRHSFQKQQREK [A2I] | 2.84
74 | FRSDGDSGTCSPLRHSFQKQQREK [A2R] | 4.38
75 | FKSDGDSGTCSPLRHSFQKQQREK [A2K] | 4.66
76 | FQSDGDSGTCSPLRHSFQKQQREK [A2Q] | 3.61
77 | FPSDGDSGTCSPLRHSFQKQQREK [A2P] | 4.27
78 | FDSDGDSGTCSPLRHSFQKQQREK [A2D] | 5.17
79 | RASDGDSGTCSPLRHSFQKQQREK [F1R] | 5.07
80 | HASDGDSGTCSPLRHSFQKQQREK [F1H] | 5.18
81 | KASDGDSGTCSPLRHSFQKQQREK [F1K] | 4.22
82 | IASDGDSGTCSPLRHSFQKQQREK [F1I] | 5.29
83 | MASDGDSGTCSPLRHSFQKQQREK [F1M] | 5.2
84 | GASDGDSGTCSPLRHSFQKQQREK [F1G] | 4.99
85 | YASDGDSGTCSPLRHSFQKQQREK [F1Y] | 4.07
86 | TASDGDSGTCSPLRHSFQKQQREK [F1T] | 5.55
87 | WASDGDSGTCSPLRHSFQKQQREK [F1W] | 5.13
88 | NASDGDSGTCSPLRHSFQKQQREK [F1N] | 5.19
89 | SASDGDSGTCSPLRHSFQKQQREK [F1S] | 5.12
90 | EASDGDSGTCSPLRHSFQKQQREK [F1E] | 5.62
91 | DASDGDSGTCSPLRHSFQKQQREK [F1D] | 4.91
92 | CASDGDSGTCSPLRHSFQKQQREK [F1C] | 4.17
93 | QASDGDSGTCSPLRHSFQKQQREK [F1Q] | 4.57
94 | PASDGDSGTCSPLRHSFQKQQREK [F1P] | 5.76
